Reference: patent US20230398116A1, “Agent for reversing resistance to anticancer drugs” (Y'S AC CO., LTD., priority 2020, published 2023)
Numbering of substitutions follows the chain as printed.

How the values were obtained:
IL-26 [1] = molecular target: T1, IL-26 (Homo sapiens, UniProt Q9NPH9); test: MTT assay of HUVECs stimulated with IL-26 (neutralizing activity of IL-26); assay type: cell-based; parameters: purchased R&D Systems; host or cells: added exogenously to HUVECs; conditions: antibody dose of 3 μg/mL
T1 sequence (Q9NPH9 22-171): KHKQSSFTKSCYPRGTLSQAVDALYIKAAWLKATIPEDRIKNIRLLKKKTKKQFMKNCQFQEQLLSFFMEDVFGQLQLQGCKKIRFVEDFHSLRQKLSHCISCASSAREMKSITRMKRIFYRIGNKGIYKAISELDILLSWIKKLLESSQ
Experimental: (§1) Human and mouse breast cancer cells (1×10^4) were cultured in 10% FCS containing RPMI1640 medium on a 96-well flat bottom plate (Corning, Tewksbury, MA) at 37° C. for 24 hours, and then stimulated with IL-26 for 48 hours in the presence or absence of EGFR-TKI (gefitinib or erlotinib) at various concentrations, a signal inhibitor, and a neutralizing antibody. HUVECs were seeded in a 96-well flat bottom plate at 5×10^3 cells/well in a 2% FBS-containing EGM medium in which growth factors were reduced by half, and cultured at 37° C. for 12 hours. Thereafter, the medium was aspirated, and a recombinant human IL-26 dimer was adjusted to a final concentration of 10 ng/mL in a 2% FBS-containing EGM medium containing no growth factors, and added to the cells. The stimulation was started in the presence or absence of control human IgG and anti-human IL-26 antibodies, and the cells were cultured for 48 hours. Thereafter, a concentration of 20 μl or 1/10 of a 5 mg/ml MTT solution (Tetrazolium monosodium salt, WST-8) was added to each well, and the plate was allowed to stand for 1 hour. The absorbance at 450 nm/595 nm was measured using Microplate Reader (Bio-Rad, Hercules, CA) and data was analyzed with Microplate Manager 6 software (Bio-Rad).

IL-26 [2] = molecular target: T1, IL-26; test: ELISA of antigen binding to human IL-26; parameters: purchased R&D Systems 1375-IL/CF; conditions: for EC50 values (binding to human IL-26, ELISA): plates coated with 0.5 μg/ml human IL-26 monomer, calculated using GraphPadPrism
Experimental: The antigen binding of purified Ch69-10-IgG1, Hu69-10A-IgG1, and Hu69-10B-IgG1 was analyzed by ELISA. ELISA plates were coated overnight at 4° C. with the addition of 0.5 μg/ml human IL-26 (recombinant human IL-26/AK155 monomer, Cat #1375-IL/CF, R&D Systems, Minneapolis, MN) at 100 μl/well in 0.2 M sodium carbonate buffer (pH 9.4). Wells were washed with the wash buffer and blocked with the ELISA buffer. Subsequently, 100 μl/well of test antibody (mouse 69-10, Ch69-10-IgG1, Hu69-10A-IgG1, or Hu69-10B-IgG1) serially diluted 2-fold in RPMI medium starting at 5 μg/ml was added to measure a binding with IL-26. After incubation at room temperature for 1 hour and washing the plates with a wash buffer, a 1/2,000-diluted HRP-conjugated goat anti-human kappa chain polyclonal antibody (Bethyl Laboratories) (for Ch69-10-IgG1, Hu69-10A-IgG1 and Hu69-10B-IgG1) or a 1/2,000-diluted HRP-labeled goat anti-mouse kappa chain polyclonal antibody (Bethyl Laboratories) (for mouse 69-10) in ELISA buffer was added at 100 μl/well to detect bound antibodies. After incubation at room temperature for 30 min and washing with the wash buffer, 100 μl/well of ABTS substrate (Sigma Aldrich) was added to start color development and 100 μl/well of 2% oxalic acid was added to stop the color development. The absorbance was measured at 405 nm.

HCC70 cells = test: MTT assay / cell proliferation (confluence) assay, HCC70; assay type: cell-based, human
Experimental: as §1
Human and mouse breast cancer cells (1×10^4) were cultured in RPMI1640 medium containing 10% FCS for 24 hours at 37° C. on a 96-well flat bottom plate (Corning), and then stimulated with IL-26 (30 ng/ml) in the presence or absence of various concentrations of gefitinib and a neutralizing antibody. Cell proliferation was measured as cell confluence using IncuCyte ZOOM (Essen Bioscience, Ann Arbor, MI).

IL-26 [3] = molecular target: T1, IL-26; test: ICAM-1 expression analysis of COLO205 (neutralizing activity of IL-26); assay type: cell-based; parameters: host or cells: added exogenously to COLO205 cells; conditions: for inhibition of IL-26-enhanced expression of ICAM-1: COLO205, recombinant human IL-26 monomer 20 ng/mL, 24 hours, flow cytometry (MFI); for inhibitory effect on IL-26 compared with m69-10 (ICAM-1 expression): COLO205, antibody doses of 2 μg/mL and 5 μg/mL
Experimental: COLO205 was seeded at 5×10^4 cells/well in a 96-well flat bottom plate, and stimulated with recombinant human IL-26 monomer (20 ng/mL) in the presence or absence of control human IgG or anti-human IL-26 antibody. After 24 hours of culture, the cells were collected and washed with ice-cold PBS (FCM buffer) containing 1% FBS and 0.1% sodium azide. Thereafter, a solution prepared by diluting a PE-labeled mouse anti-human ICAM-1 monoclonal antibody (clone 15.2, catalog number 50-0549-T100) of Bay bioscience (Kobe, Japan) or a PE-labeled mouse Igl,k isotype control monoclonal antibody (clone MOPC-21, catalogue number 400114) of BioLegend with FCM buffer to 5 μg/mL, was added at 50 μL/sample, and the mixture was allowed to stand at 4° C. for 25 minutes. Thereafter, the cells were washed with ice-cold FCM buffer, then measured with FACSCalibur, and the obtained data was analyzed with FlowJo.

[4] = Heterogeneous chronic GVHD model (NOG mice transplanted with human umbilical cord blood mononuclear cells); assay type: in vivo, mouse
Experimental: On day −1, NOG mice were irradiated with a sublethal dose (100 cGy). On day 0, 5×10^6 human umbilical cord blood mononuclear cells were transplanted from the tail vein of NOG mice. Survival of the mice was assessed daily and body weight was measured twice a week. In an antibody treatment experiment, the control human IgG or anti-human IL-26 monoclonal antibody (the mouse antibody m69-10 and the humanized antibody h69-10A) was administered from day +28 of transplantation when clinical signs/symptoms of mild GVHD began to appear. The antibody solution was adjusted to a concentration of 1 mg/mL with sterile PBS, and 200 μL (200 μg) of the antibody solution per mouse was intraperitoneally injected twice a week. On day +56 after transplantation, the mice were sacrificed, and the skin, lung, liver, and large intestine were collected.
NOG mice were dissected, and then the skin, lung, liver, and large intestine on the back were excised, fixed in 10% formalin solution (Wako) at room temperature, and embedded in paraffin. Thereafter, a section having a thickness of 5 μm was prepared and placed on a glass slide, and stained with hematoxylin and eosin (H&E). In addition, in order to confirm the proliferation of collagen fibers, Azan-Mallory staining was performed. Images of the optical microscope were taken with an Olympus BX41 microscope (OLYMPUS, Tokyo, Japan) connected with an Olympus digital camera DP25, and CellSens software was used.

EphA3/IL-26 interaction = molecular target: T2, EphA3/IL-26 interaction (Homo sapiens, UniProt Q9NPH9); test: Immunofluorescence of rhIL-26-Alexa 488 and cell surface EphA3 on E0771 cells; assay type: cell-based, mouse; conditions: E0771, antibodies 10 μg/ml, FIGS. 19 and 20
T2 construct: purchased R&D Systems; host or cells: IL-26 was purchased; EphA3 is endogenous on E0771 cells
T2 sequence (Q9NPH9 22-171): T1 sequence (Q9NPH9 22-171)
Experimental: (§2) E0771 and HCC70 cells (1×10^5) were cultured for 24 hours in RPMI1640 medium with 10% FCS on Lab-Tek chamber slides (Thermo Fisher Scientific). The cultured cells were stimulated with Alexa Fluor 488 labeled IL-26 (30 ng/ml) in the presence or absence of recombinant human and mouse EphA3-Ig for 1 hour. HCC70 cells were stimulated with IL-26 (30 ng/ml) in the presence or absence of gefitinib (40 μM), a signal inhibitor, and a neutralizing antibody for 24 hours. Subcutaneous tumor samples obtained from mice were fixed in 4% paraformaldehyde (Thermo Fisher Scientific) and embedded in OCT compound (Tissue-Tek (registered trademark), Sakura Finetek, Japan). Cells and slides were immunostained with each antibody and observed using a Zeiss inverted microscope and Axiovision 2.0 program (Carl Zeiss, Germany). The fluorescence intensity was quantified with Image-J software (NIH). The images were captured using a 100×400× objective.

[5] = molecular target: T3, interaction between IL-26 and EphA3 (Homo sapiens, UniProt Q9NPH9); test: Immunofluorescence of rhIL-26-Alexa488 and cell surface EphA3 on HCC70 cells; assay type: cell-based; conditions: HCC70, rhIL-26-Alexa488 30 ng/ml, 50 μg/ml each, 1 hour, FIG. 21
T3 construct: purchased R&D Systems; host or cells: IL-26 was purchased; EphA3 is endogenous on HCC70 cells
T3 sequence (Q9NPH9 22-171): T1 sequence (Q9NPH9 22-171)
Experimental: as §2

[6] = 200 μg per mouse i.p. twice a week from day 28, data not shown

B1: Hu69-10A-IgG1: humanized 69-10 IgG1/kappa antibody expressed by pHu69-10A (Hu69-10VH1 and Hu69-10VL1) (antibody, V domains shown)
VH: QVTLKESGPALVKPTQTLTLTCTFSGFSLSTSGMGVGWIRQPPGKALEWLAHIWWDDDKYYNPSLKSQLTISKDTSKNQVVLTMTNMDPVDTATYYCVRGGITATHYYAMDYWGQGTTVTVSS
VL: DIQMTQSPSSLSASVGDRVTITCLASQTIGTWLSWYQQKPGKAPKLLIYAATSLADGVPSRFSGSGSGTKFTFTISSLQPEDIATYYCQQLYSSPWTFGGGTKVEIK
inhibitory effect on IL-26 compared with m69-10 (HUVEC proliferation) (IL-26 [1]): significantly higher inhibitory effect on IL-26 than the original mouse antibody m69-10 | EC50 values (binding to human IL-26, ELISA) (IL-26 [2]): 0.304 µg/mL | binding to IL-26 (absorption value) (IL-26 [2]; recombinant human IL-26 immobilized on a plate, FIG. 56): stronger binding to IL-26 than an original mouse antibody m69-10 | reversal of inhibitory effect of IL-26 on gefitinib-induced suppression of cell proliferation (HCC70 cells; HCC70, IL-26 30 ng/ml, gefitinib 40 μM, 48 hours, MTT, FIG. 59): reversed the inhibitory effect of IL-26 on gefitinib-induced suppression of cell proliferation in an antibody dose-dependent manner | inhibitory effect on IL-26 compared with m69-10 (HCC70 proliferation) (HCC70 cells; antibody doses of 5 μg/mL and 20 μg/mL): significantly higher inhibitory effect on IL-26 than the original mouse antibody m69-10 | inhibition of IL-26-enhanced expression of ICAM-1 (IL-26 [3]): partially inhibited | inhibitory effect on IL-26 compared with m69-10 (ICAM-1 expression) (IL-26 [3]): significantly higher inhibitory effect on IL-26 than the original mouse antibody m69-10 | body weight loss [4, 6]: clearly reduced | number of survival days [4, 6]: significantly prolonged | therapeutic effect compared with m69-10 ([4]; FIG. 60): higher therapeutic effect than the original mouse antibody m69-10

B2: Hu69-10B-IgG1: humanized 69-10 IgG1/kappa antibody expressed by pHu69-10B (Hu69-10VH1 and Hu69-10VL2) (antibody, V domains shown)
VH: B1 VH
VL: B1 VL with K70D
inhibitory effect on IL-26 compared with m69-10 (HUVEC proliferation) (IL-26 [1]): significantly higher inhibitory effect on IL-26 than the original mouse antibody m69-10 | EC50 values (binding to human IL-26, ELISA) (IL-26 [2]): 0.396 µg/mL | inhibition of IL-26-enhanced expression of ICAM-1 (IL-26 [3]): partially inhibited | inhibitory effect on IL-26 compared with m69-10 (ICAM-1 expression) (IL-26 [3]): significantly higher inhibitory effect on IL-26 than the original mouse antibody m69-10

B3: rhEphA3-Ig: recombinant human EphA3 Fc chimeric protein purchased from R&D Systems (protein)
chain: ELIPQPSNEVNLLDSKTIQGELGWISYPSHGWEEISGVDEHYTPIRTYQVCNVMDHSQNNWLRTNWVPRNSAQKIYVELKFTLRDCNSIPLVLGTCKETFNLYYMESDDDHGVKFREHQFTKIDTIAADESFTQMDLGDRILKLNTEIREVGPVNKKGFYLAFQDVGACVALVSVRVYFKKCPFTVKNLAMFPDTVPMDSQSLVEVRGSCVNNSKEEDPPRMYCSTEGEWLVPIGKCSCNAGYEERGFMCQACRPGFYKALDGNMKCAKCPPHSSTQEDGSMNCRCENNYFRADKDPPSMACTRPPSSPRNVISNINETSVILDWSWPLDTGGRKDVTFNIICKKCGWNIKQCEPCSPNVRFLPRQFGLTNTTVTVTDLLAHTNYTFEIDAVNGVSELSSPPRQFAAVSITTNQAAPSPVLTIKKDRTSRNSISLSWQEPEHPNGIILDYEVKYYEKQEQETSYTILRARGTNVTISSLKPDTIYVFQIRARTAAGYGTNSRKFEFETSPDSFSISGESSQ
modifications: left off: a dimerising Fc or GST
notes: recombinant human EphA3 Fc chimeric protein purchased from R&D Systems
inhibition of colocalization of IL-26 with EphA3 (EphA3/IL-26 interaction) (EphA3/IL-26 interaction): inhibited EphA3/IL-26 interaction | blocking of inhibitory effect of IL-26 on suppression of cell proliferation by gefitinib (HCC70 cells; HCC70, IL-26 30 ng/ml, gefitinib 40 μM, 48 hours, Abs or rhEphA3-Ig 50 μg/ml each, MTT, FIG. 22): potently blocked the inhibitory effect of IL-26 on suppression of cell proliferation by gefitinib | inhibition of interaction between IL-26 and EphA3 [5]: clearly inhibited the interaction between IL-26 and EphA3
